The record followed here is patent publication US20250313635A1 (Merck Sharp & Dohme, published 2025).

As a reminder, the IC50 is the midpoint of a concentration-inhibition curve. By Kd is commonly meant a measure of binding affinity in units of concentration.

Substitutions are numbered along the chain they refer to.

In experiment [1] the target is T1, recombinant mouse αvβ6 integrin extracellular domains (mouse, UniProt P43406 1-988; Q9Z0T9 1-706, Biotinylated on the Avitag (tag not in the letters); interchain disulfide between the coiled-coils (not in the letters).).
T1 construct: Soluble heterodimer co-expressed in Expi293 cells; also called mαvβ6
Nature of the experiment: AlphaLISA blocking of mouse LAP-6His binding. The procedure:
(§1) Briefly, the testing antibody (8 μL) was added as a 4×(of Final testing concentration) solution in the HEPES buffer described previously into a 384w AlphaPlate™ (Perkin Elmer #6005350). Then the integrin and ligand were added sequentially as 8×(4 μL each). Plates were sealed and incubated at room temperature for two hours. Then 4×acceptor bead solution ([…]) was added, and the plates were resealed and incubated at room temperature (RT) for one hour. Finally, 4×([…]) donor beads solution was added in a darkened room and incubated for 45 minutes at room temperature. Plates were read on the Envision (Perkin Elmer) in AlphaScreen™ mode within three hours of donor bead addition.
(In general: In Alpha technology, singlet oxygen from a donor bead excites a nearby acceptor bead.)

Experiment [2] has as its target T2, recombinant mouse αvβ5 integrin extracellular domains (mouse, UniProt P43406 1-988; O70309 1-719, Biotinylated on the Avitag (tag not in the letters); interchain disulfide between the coiled-coils (not in the letters).).
T2 construct: Soluble heterodimer co-expressed in Expi293 cells; also called mαvβ5
In words: AlphaLISA blocking of mouse vitronectin binding. The procedure:
as §1

For experiment [3], the target named is T3, recombinant mouse αvβ1 integrin extracellular domains (mouse, UniProt P43406 1-988; P09055 1-728, Biotinylated on the Avitag (tag not in the letters); interchain disulfide between the coiled-coils (not in the letters).).
T3 construct: Soluble heterodimer co-expressed in Expi293 cells; also called mαvβ1
Nature of the experiment: AlphaLISA blocking of mouse fibronectin binding. The procedure:
as §1

The target of experiment [4] is T4, recombinant human αvβ1 integrin extracellular domains (human, UniProt P06756 1-992; P05556 1-728, Secreted glycoprotein heterodimer. It is biotinylated on the omitted Avitag, and an interchain disulfide sits in the omitted coiled-coils.).
T4 construct: Soluble heterodimer co-expressed in Expi293 cells; also called hαvβ1; not shown: Alpha chain: acidic coiled-coil with cysteine and GG-Avitag; Beta chain: basic coiled-coil with cysteine and GG-Avitag
In words: AlphaLISA blocking of human fibronectin binding.

The target of experiment [5] is T3, recombinant mouse αvβ1 integrin …. Nature of the experiment: ForteBio Octet Red (BLI).
Experiment [6] concerns the target T5, recombinant human αvβ3 integrin extracellular domains (human, UniProt P06756 1-992; P05106 1-718, Secreted glycoprotein heterodimer. It is biotinylated on the omitted Avitag, and an interchain disulfide sits in the omitted coiled-coils.).
T5 construct: Soluble heterodimer co-expressed in Expi293 cells; also called hαvβ3; not shown: Alpha chain: acidic coiled-coil with cysteine and GG-Avitag; Beta chain: basic coiled-coil with cysteine and GG-Avitag
In words: ForteBio Octet Red (BLI).

In experiment [7] the target is T1, recombinant mouse αvβ6 integrin …. In words: ForteBio Octet Red (BLI). For orientation: In BLI a coated tip is dipped into the sample, and binding shifts an interference pattern.
Experiment [8] addresses T4, recombinant human αvβ1 integrin …. In words: ForteBio Octet Red (BLI).
Experiment [9] addresses T3, recombinant mouse αvβ1 integrin …. Nature of the experiment: ForteBio Octet Red (BLI); upper end tied to Ab-31 and mαvβ1 by Table 13.
Experiment [10] addresses human αvβ6 integrin on CHOK1 stable cells (human, UniProt P06756 31-1048; P18564 22-788). Nature of the experiment: cell-based or functional assay.
The target in experiment [11] is mouse αvβ1 integrin on CHOK1 stable cells (mouse, UniProt P43406 31-1044; P09055 21-798). Nature of the experiment: cell-based or functional assay.
The target of experiment [12] is mouse αvβ6 integrin on CHOK1 stable cells (mouse, UniProt P43406 31-1044; Q9Z0T9 22-787). In words: cell-based or functional assay.
Experiment [13] deals with human αvβ8 integrin on CHOK1 stable cells (human, UniProt P06756 31-1048; P26012 43-769). Nature of the experiment: cell-based or functional assay.
In experiment [14] the target is mouse αvβ8 integrin on CHOK1 stable cells (mouse, UniProt P43406 31-1044; Q0VBD0 22-767). Nature of the experiment: cell-based or functional assay.
Experiment [15] has as its target human αvβ1 integrin on CHOK1 stable cells (human, UniProt P06756 31-1048; P05556 21-798). In words: cell-based or functional assay.
Experiment [16] has as its target mouse αvβ3 integrin on CHOK1 stable cells (mouse, UniProt P43406 31-1044; O54890 26-787). In words: cell-based or functional assay.
In experiment [17] the target is mouse αvβ5 integrin on CHOK1 stable cells (mouse, UniProt P43406 31-1044; O70309 24-798). In words: cell-based or functional assay.
The target of experiment [18] is T1, recombinant mouse αvβ6 integrin …. Nature of the experiment: ForteBio Octet Red (BLI); lower end tied to Ab-33 and mαvβ6 by Table 13.

T3 sequence (P43406 31-988 limits assumed, form in doubt, chain 1 of 2): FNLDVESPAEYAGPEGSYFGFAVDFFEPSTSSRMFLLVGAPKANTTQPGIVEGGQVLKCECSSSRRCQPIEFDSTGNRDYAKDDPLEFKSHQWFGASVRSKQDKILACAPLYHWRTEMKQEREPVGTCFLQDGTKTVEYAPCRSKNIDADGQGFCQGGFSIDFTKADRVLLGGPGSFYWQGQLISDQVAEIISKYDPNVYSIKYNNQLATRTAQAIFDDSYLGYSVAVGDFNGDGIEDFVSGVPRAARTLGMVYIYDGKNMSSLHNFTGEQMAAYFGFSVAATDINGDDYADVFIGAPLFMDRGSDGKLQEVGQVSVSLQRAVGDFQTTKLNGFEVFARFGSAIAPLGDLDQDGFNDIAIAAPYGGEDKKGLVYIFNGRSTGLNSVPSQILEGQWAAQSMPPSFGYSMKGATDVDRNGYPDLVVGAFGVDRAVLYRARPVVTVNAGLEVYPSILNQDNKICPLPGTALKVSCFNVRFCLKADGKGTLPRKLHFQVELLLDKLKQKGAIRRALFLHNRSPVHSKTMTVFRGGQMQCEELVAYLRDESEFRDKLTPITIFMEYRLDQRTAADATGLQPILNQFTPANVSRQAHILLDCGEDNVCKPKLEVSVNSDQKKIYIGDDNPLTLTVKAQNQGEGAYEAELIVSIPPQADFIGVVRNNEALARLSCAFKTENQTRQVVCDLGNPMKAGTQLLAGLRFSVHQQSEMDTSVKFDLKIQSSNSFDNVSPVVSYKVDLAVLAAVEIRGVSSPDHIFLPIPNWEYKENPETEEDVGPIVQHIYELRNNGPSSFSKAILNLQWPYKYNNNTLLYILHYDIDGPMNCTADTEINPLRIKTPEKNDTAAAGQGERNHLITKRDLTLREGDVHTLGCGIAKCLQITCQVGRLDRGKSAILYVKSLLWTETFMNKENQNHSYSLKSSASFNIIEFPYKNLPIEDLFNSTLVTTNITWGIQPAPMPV
T3 sequence (P09055 21-728 limits assumed, form in doubt, chain 2 of 2): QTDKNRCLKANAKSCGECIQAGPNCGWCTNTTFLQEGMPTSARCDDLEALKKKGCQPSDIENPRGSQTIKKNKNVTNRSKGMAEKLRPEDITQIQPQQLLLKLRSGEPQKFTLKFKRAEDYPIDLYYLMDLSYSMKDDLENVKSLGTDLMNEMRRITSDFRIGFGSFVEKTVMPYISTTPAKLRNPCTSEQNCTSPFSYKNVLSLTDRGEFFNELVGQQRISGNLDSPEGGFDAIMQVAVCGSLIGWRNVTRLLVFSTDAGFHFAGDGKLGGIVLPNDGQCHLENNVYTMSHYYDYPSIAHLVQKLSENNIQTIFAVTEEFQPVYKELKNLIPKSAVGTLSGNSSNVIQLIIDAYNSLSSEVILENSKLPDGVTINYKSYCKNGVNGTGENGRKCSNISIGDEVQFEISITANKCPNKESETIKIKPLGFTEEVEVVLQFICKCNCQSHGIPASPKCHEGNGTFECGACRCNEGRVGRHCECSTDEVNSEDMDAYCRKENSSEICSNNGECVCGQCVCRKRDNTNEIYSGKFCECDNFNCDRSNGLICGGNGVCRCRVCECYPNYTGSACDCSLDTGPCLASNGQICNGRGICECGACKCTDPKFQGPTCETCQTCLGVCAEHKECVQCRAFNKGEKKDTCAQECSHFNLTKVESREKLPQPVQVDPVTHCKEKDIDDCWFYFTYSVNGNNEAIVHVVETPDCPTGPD
T1 sequence (P43406 31-988 limits assumed, form in doubt, chain 1 of 2): as the sequence (P43406 31-988 limits assumed, form in doubt, chain 1 of 2) above
T1 sequence (Q9Z0T9 22-706 limits assumed, form in doubt, chain 2 of 2): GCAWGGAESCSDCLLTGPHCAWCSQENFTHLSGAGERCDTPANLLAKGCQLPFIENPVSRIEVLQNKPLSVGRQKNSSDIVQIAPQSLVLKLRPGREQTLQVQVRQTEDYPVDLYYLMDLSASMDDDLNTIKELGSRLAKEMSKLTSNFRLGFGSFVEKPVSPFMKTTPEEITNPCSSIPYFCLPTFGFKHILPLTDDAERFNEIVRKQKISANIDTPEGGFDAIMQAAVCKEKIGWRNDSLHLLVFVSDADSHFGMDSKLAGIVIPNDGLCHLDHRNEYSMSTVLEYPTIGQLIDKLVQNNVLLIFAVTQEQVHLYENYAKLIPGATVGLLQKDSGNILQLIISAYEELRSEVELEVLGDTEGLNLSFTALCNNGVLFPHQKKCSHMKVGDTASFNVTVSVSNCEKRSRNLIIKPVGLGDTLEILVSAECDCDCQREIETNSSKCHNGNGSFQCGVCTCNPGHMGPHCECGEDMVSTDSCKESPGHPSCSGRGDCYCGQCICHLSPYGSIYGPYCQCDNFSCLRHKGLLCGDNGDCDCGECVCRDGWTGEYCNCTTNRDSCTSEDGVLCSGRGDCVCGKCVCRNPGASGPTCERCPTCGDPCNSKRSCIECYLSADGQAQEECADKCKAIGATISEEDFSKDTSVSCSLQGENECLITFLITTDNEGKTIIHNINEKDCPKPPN
T2 sequence (P43406 31-988 limits assumed, form in doubt, chain 1 of 2): as the sequence (P43406 31-988 limits assumed, form in doubt, chain 1 of 2) above
T2 sequence (O70309 24-719 limits assumed, form in doubt, chain 2 of 2): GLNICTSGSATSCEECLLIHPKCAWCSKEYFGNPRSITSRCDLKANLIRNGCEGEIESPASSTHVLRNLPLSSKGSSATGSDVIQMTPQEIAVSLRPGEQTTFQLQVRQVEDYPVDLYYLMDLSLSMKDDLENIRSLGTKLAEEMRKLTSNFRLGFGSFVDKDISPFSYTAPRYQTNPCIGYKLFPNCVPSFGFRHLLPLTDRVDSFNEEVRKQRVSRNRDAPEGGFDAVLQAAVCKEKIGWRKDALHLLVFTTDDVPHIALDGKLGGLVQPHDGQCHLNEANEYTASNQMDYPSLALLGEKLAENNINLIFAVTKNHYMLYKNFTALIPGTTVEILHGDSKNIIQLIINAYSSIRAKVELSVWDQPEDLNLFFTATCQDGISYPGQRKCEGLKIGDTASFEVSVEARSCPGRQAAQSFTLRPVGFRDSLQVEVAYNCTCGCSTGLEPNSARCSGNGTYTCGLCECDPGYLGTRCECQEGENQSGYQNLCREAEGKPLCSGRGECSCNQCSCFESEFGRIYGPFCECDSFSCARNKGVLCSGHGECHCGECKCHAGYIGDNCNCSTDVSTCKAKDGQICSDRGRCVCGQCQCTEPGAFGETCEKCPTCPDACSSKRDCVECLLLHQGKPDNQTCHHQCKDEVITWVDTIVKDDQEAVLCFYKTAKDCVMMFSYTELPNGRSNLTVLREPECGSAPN
Sequence of mouse αvβ1 integrin on CHOK1 stable cells (P43406 31-1044, chain 1 of 2): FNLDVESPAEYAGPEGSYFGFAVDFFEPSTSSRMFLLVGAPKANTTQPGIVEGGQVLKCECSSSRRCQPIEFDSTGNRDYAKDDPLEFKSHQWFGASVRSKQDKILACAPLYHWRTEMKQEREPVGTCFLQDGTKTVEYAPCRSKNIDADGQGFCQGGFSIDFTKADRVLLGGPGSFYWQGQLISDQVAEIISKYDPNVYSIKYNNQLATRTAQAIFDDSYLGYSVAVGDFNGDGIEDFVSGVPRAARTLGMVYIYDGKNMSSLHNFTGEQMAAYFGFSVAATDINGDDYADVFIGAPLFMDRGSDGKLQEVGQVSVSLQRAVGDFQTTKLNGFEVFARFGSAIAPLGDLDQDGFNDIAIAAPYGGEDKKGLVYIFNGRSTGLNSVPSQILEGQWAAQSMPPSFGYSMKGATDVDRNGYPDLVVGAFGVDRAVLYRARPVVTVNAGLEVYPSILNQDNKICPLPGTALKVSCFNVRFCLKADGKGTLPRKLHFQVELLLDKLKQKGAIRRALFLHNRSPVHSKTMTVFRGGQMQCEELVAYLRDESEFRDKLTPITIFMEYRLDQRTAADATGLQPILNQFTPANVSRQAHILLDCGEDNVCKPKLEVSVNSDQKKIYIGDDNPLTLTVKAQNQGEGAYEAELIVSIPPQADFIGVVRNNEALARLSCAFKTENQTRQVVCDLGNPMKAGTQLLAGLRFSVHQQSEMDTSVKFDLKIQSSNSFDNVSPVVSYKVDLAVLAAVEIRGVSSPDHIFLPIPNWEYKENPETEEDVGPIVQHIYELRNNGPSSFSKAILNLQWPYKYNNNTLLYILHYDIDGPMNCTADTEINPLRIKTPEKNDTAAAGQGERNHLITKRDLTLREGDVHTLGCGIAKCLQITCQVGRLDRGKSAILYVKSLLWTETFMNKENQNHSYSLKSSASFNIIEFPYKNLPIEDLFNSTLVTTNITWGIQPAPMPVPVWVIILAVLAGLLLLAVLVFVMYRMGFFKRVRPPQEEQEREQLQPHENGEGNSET
Sequence of mouse αvβ1 integrin on CHOK1 stable cells (P09055 21-798, chain 2 of 2): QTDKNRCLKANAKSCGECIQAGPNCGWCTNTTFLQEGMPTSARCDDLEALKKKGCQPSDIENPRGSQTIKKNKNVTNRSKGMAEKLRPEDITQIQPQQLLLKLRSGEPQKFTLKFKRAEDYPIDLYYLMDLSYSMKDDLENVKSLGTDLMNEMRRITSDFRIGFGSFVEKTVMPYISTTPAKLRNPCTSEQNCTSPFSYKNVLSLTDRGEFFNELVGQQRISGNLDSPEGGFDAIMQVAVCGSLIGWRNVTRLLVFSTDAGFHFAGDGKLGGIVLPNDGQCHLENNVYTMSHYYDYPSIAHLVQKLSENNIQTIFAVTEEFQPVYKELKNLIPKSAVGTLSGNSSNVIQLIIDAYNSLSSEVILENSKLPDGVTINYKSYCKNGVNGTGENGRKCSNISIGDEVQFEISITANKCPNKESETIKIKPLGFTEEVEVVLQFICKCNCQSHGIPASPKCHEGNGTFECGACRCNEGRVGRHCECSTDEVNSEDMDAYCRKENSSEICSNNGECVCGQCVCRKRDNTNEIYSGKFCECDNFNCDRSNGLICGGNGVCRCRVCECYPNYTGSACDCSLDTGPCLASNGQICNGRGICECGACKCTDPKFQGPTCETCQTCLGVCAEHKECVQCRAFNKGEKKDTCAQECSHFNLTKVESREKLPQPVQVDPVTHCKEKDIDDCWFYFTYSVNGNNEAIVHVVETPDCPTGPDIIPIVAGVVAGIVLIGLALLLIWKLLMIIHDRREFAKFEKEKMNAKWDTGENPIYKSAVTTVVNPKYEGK

B1: Ab-29 (antibody, V domains shown)
VH: ELQLQESGPGLVKPSETLSLTCTVSGGSISSNSYYWGWIRQPPGKGLEWIGSIYYSGSTYYNPSLKSRVTISVDTSKNQFSLKLSSVTAADTAVYYCARVRRVAGRGDSYYYYYGMDVWGQGTTVTVSS
VL: DIQMTQSPSSVSASVGDRVTITCRASQGISRWLAWYQQKPGKAPKLLIYAASSLQSGVPSRFSGSGSGTDFTLTISSLQPEDFATYYCQQAISHPWTFGGGTKVEIK
On to B1, for which the IC50 in experiment [1] amounted to 26.3 nM; in [2] it was 17.7 nM; in [3] it was 3.4 nM; in experiment [4], 2.57 nM. Further, the Kd in [5] is 4.21 nM; in experiment [6], 6.58 nM; in [7], 4.11 nM; in [8], 2.7 nM.

B2: Ab-31 (antibody, V domains shown)
VH: EVQLQESGPGLVKPSETLSLTCAVSGYSISSGYYWGWIRQPPGKGLEWIGSIYHSGNTYYNPSLKSRVTISVDTSKNQFSLKLSSVTAADTAVYYCARVPRYSRGDAYYYYGMDVWGQGTTVTVSS
VL: DIQMTQSPSTLSASVGDRVTITCRASQSIGSWLAWYQQKPGKAPKLLIYKASSLESGVPSRFSGSGSGTEFTLTISSLQPDDFATYYCQQSGPYPWTFGGGTKVEIK
As for B2, the Kd in experiment [9] is 2 to 48 nM; in [5], 48.4 nM; in experiment [6], 6.47 nM; in [7] it was 2.9 nM; in experiment [8] it was 14 nM. The IC50 turned out to be 17.7 nM in experiment [1], 6.6 nM in [3] and 2.26 nM in experiment [4]. Moreover, the “IC50 of latent TGFβ activation (PAI-1 luciferase, TMLC and CHOK1-integrin co-culture)” value is 19.1 nM in experiment [10]; 7.5 nM in [11]; 3.1 nM in experiment [12]; 3.9 nM in experiment [13]; 13.5 nM in experiment [14]; 6.1 nM in [15]. The “IC50 of inhibition of adhesion of CHOK1-α5KO-mαvβ1 cells to fibronectin matrix” value in experiment [11] is 1.5 nM. The “IC50 of inhibition of adhesion of CHOK1-mαvβ3 cells to vitronectin matrix” value in [16] worked out at 1 nM. Also, the “IC50 of inhibition of adhesion of CHOK1-mαvβ5 cells to vitronectin matrix” value in [17] is 5.6 nM.

B3: Ab-30 (antibody, V domains shown)
VH: B2 VH
VL: DIQMTQSPSTLSASVGDRVTITCRASQSISSWLAWYQQKPGKAPKLLIYKASSLESGVPSRFSGSGSGTEFTLTISSLQPDDFATYYCQQVKIYPPYTFGGGTKVEIK
For B3, the IC50 in [1] was 23.2 nM; in experiment [3], 6.8 nM; in experiment [4], 3.15 nM. Also, the Kd in experiment [5] is 35 nM; in [6], 5.29 nM; in experiment [7] it was 3.03 nM; in experiment [8] it was 6.75 nM.

B4: Ab-33 (antibody, V domains shown)
VH: EVQLVQSGAEVKKPGSSVKVSCKASGGTFSNYAISWVRQAPGQGLEWMGGIIPIFGTANYAQKFQGRVTITADESTSTAYMELSSLRSEDTAVYYCARAPRSARGDMYYYYYGMDVWGQGTTVTVSS
VL: B2 VL with S91Y, P93R
As for B4, the half-inhibitory concentration (IC50) in experiment [1] was 6.6 nM; in experiment [2], 96.3 nM; in experiment [3], 4.5 nM; in experiment [4] it was 1.27 nM. For the same molecule, the Kd was 2 to 48 nM in experiment [18]; 37.7 nM in experiment [5]; 5.07 nM in experiment [6]; 2.45 nM in experiment [7]; 12.7 nM in experiment [8].

B5: Ab-32 (antibody, V domains shown)
VH: B2 VH
VL: EIVLTQSPGTLSLSPGERATLSCRASQSVRSSYLAWYQQKPGQAPRLLIYGASSRATGIPDRFSGSGSGTDFTLTISRLEPEDFAVYYCQQAGLVFTFGGGTKVEIK
Regarding B5, the figures for the half-inhibitory concentration (IC50) in experiment [1], in experiment [3] and in experiment [4] were 17.1 nM, 6.7 nM and 2.41 nM, respectively. The Kd stood at 25.9 nM in experiment [5], 6.14 nM in [6], 2.59 nM in [7] and 7.4 nM in experiment [8].
